The text below walks through data of patent publication US20250129329A1, “CULTURE MEDIUM FOR HEPATOMA ORGANOID CULTURE, HEPATOMA ORGANOID CULTURE METHOD, AND APPLICATION THEREOF” (PRECEDO PHARMACEUTICALS CO., LTD, priority 2021, published 2025).

The test system of this test is hepatoma organoids isolated from liver cancer tissue. The test is described as follows: Effects of medium additives on proliferation of hepatoma organoids (Example 1). It counts as cell-based, human. The conditions noted are these: additive in basic medium at the final concentration; organoid diameters after 7 days compared with Basic Medium. On the procedure: First, a basic medium containing initial medium was prepared. […] In this embodiment, the formulation of the basic medium is: DMEM/F12 medium (purchased from Corning)+100 μg/mL Primocin (purchased from InvivoGen, 0.2% (v/v), commercial product has a concentration of 50 mg/ml).
Different types of additives (see Table 1) were added to the basic medium to prepare culture mediums for hepatoma organoid with different components.
Tissue samples (intraoperative) of liver cancer solid tumor were obtained from patients by professional medical practitioner of professional medical institutions, and all patients have signed the informed consent. Intraoperative samples having the size of 0.25 cm3 were stored and transported using commercial tissue preservation solution (manufacturer: Miltenyi Biotec).
• 3.1. Tissue samples were transferred from the ultra-clean workbench to a culture dish, and the tissue with blood was removed. […] The completion of digestion was determined via observation every 30 minutes, based on the existing of visible particles or not. • 3.4. […]
The primary liver cancer cells obtained in the above steps were resuspended with pre-cooled DMEM/F12 and counted. […] After 7 days, the cultured organoids were photographed and the diameters of the organoids were measured and compiled, so as to compare the promoting effects of various factors on the proliferation of hepatoma organoids. […]

B1: R-spondin1: R-spondin family protein, medium additive, supplier R&D (protein, UniProt Q2MKA7 21-263, looked up)
R-spondin-1: SRGIKGKRQRRISAEGSQACAKGCELCSEVNGCLKCSPKLFILLERNDIRQVGVCLPSCPPGYFDARNPDMNKCIKCKIEHCEACFSHNFCTKCKEGLYLHKGRCYPACPEGSSAANGTMECSSPAQCEMSEWSPWGPCSKKQQLCGFRRGSEERTRRVLHAPVGDHAACSDTKETRRCTVRRVPCPEGQKRRKGGQGRRENANRNLARKESKEAGAGSRRRKGQQQQQQQGTVGPLTSAGPA
For the molecule B1, the “Level of promoting proliferation” value is “+”.
